{"source": "paper PMC3321547", "about": "(Biochemistry, 2009)", "binders": {"B1": {"name": "NF910-952 (non-fusion kinesin tail peptide, residues 910-952) (peptide)", "chain": "not shown"}, "B2": {"name": "TT910-952mGFP (thioredoxin fusion of kinesin tail residues 910-952 with C-terminal mGFP) (domain or fragment)", "chain": "not shown"}, "B3": {"name": "TT927-952 (thioredoxin fusion of kinesin tail residues 927-952) (domain or fragment, Drosophila)", "chain": "AVRQKHLGRRGPQAQIAKPIRSGQGATS"}, "B4": {"name": "NF910-952mGFP (non-fusion kinesin tail peptide 910-952 with C-terminal mGFP) (domain or fragment)", "chain": "not shown"}}, "key": {"[1]": {"molecular_target": "T1, DKH412 (Drosophila kinesin heavy chain residues 1-412, dimeric head construct) (Drosophila, UniProt P17210 1-412)", "assay": "inhibition of mADP release from the heads"}, "[2]": {"molecular_target": "T1, DKH412 (Drosophila kinesin heavy chain …)", "assay": "inhibition of basal steady state ATPase"}, "[3]": {"molecular_target": "T1, DKH412 (Drosophila kinesin heavy chain …)", "assay": "inhibition of basal steady state ATPase", "remark": "listed apart in the source"}, "[4]": {"molecular_target": "T1, DKH412 (Drosophila kinesin heavy chain …)", "assay": "inhibition of mADP release from the heads", "remark": "listed apart in the source"}, "[5]": {"molecular_target": "T1, DKH412 (Drosophila kinesin heavy chain …)", "assay": "co-sedimentation"}, "[6]": {"molecular_target": "T1, DKH412 (Drosophila kinesin heavy chain …)", "assay": "FRET or BRET"}}, "note": "Several values for one entry are separate records, joined by “and”; a condition that tells them apart may be missing. Identical values can stand only once."}
{"binder": "B1", "values": [{"measurement": "Kd", "setting": "[1]", "value": 0.33, "unit": "µM"}, {"measurement": "Kd", "setting": "[2]", "value": 0.066, "unit": "µM"}, {"measurement": "stoichiometry N", "setting": "[3]", "value": "1 tail peptide per two head peptides"}, {"measurement": "Kd", "setting": "[4]", "value": 0.021, "unit": "µM"}]}
{"binder": "B2", "values": [{"measurement": "stoichiometry N", "setting": "[5]", "value": "< 0.5 TT910-952mGFP per DKH412 monomer and ~0.5 tail peptide per head peptide"}]}
{"binder": "B3", "values": [{"measurement": "Kd", "setting": "[3]", "value": "< 0.1", "unit": "µM"}]}
{"binder": "B4", "values": [{"measurement": "Kd", "setting": "[6]", "value": 0.4, "unit": "µM"}, {"measurement": "koff", "setting": "[6]", "value": "~32", "unit": "s⁻¹"}, {"measurement": "observed rate of dissociation with a 5-fold excess of unlabelled tail (trace b)", "setting": "[6]", "value": 30.9, "unit": "s⁻¹"}, {"measurement": "observed rate of dissociation with a 20-fold excess of unlabelled tail (trace c)", "setting": "[6]", "value": 32.8, "unit": "s⁻¹"}]}
